According to paper PMC5015840:

Target: MBP-OsIAA10 (rice)

B1: RDV P2 in RDV-infected rice plants (natural protein)
chain: MAYPNDVRNVWDVYNVFRDVPNREHLIRDIRNGLVTVRNLTNMLTNMERDDQLIIAQLSNMMKSLSIGVEKAQNELSKLKTTDADRAAVLAAYQTSVLNIERNTMLLTGYFKQLVLDLTGYVGASVYPILPFMITGDQSMMVDSIKINMKNVFDDKHEQEIVLPIHPACFVSTITEDTSSVVYADGDELYSVHVRHATMTMYVNVLGETVETRQLSMIGDSIVPDDFAPSLLILRFSQDSVGEVFYLSHDNMKKFLGYGLEYTDKYSIFDVTRRVSTTRNKIPDGFCSVDGVPYLDGWFIYQPSGISADSNICAIYNSYVLDTLRYITECEVDTLRSVYDQTSSTAFSKTDVLTSSLLTMQSNISALSAATPQLANDVITFDSTDLLSLGTVLTVSNEFTADDTILSTSLAGHCQVDYSEGSPQDKSMSISVSCDSSQLASSTVHSYSADILGHGLKGDRNMNLMINVPGLMNPQKVTVDYVYSDGYKLNFASVVAPGAPFWINATLQLSVSPSAHNMLSKLTPLDNDACPGLKAQANTPVLVSMTINLDDATPALGGEVIQNCVFKIHHGDDVYSFVTDFDVISYTSTSGTNCLKLISSVDITSQLPSDMVIYVMNGSPDAAFISGDSVNMSSVDWHQSTSQTVGNYVYTTMKAYWNVTSYDVEARPYTTYVPGKVNFTAVEHADVFVDDYNTGVNSYVIVNSRIYYKGTPLYIEVPSGSFIKVSYFTSPLKNPTVDTYNAEISRNSAYLIKANASLDSVAAMLNNISNRIDAMERLMEPTRAQQIAGVVSSIGGVISLGMPLLGAIVVTIGTIISIADPDKQGIDYHSVANAFMSWCQYAAVCRYEYGLLKRGDEKLDVLSFMPKRVVSDFKNKPDVISLPELGESVLRGSSTDYLDTGINIIYNDMQLLGQGKLSDWLNKTVSKVENNAANFFERNLDKSLANKEVLPMHARVEITQTEKIGDVYRTTILYTGINEGSYLGGDVFASRLGDKNILRMNGFESGPGRFKAIVESTTEVGNFRVVDWTVSGMSRYEIYAAAGEVYPSKDPSHADVQLLYESIVRDLTTRDGSFVLKHHDVLLLPGQLDAFEELIIKNASNYQYAFIGSNCSKLCA
For B1, the half-life of MBP-OsIAA10 in the cell-free degradation assay, RDV-infected against mock-inoculated rice extracts was > 2 fold.
